According to paper PMC3185441:

Key:
Test in all cases: fluorescence protection assay
[1] = target: Carcinoembryonic antigen (CEA) (UniProt P06731 35-685)
Thrombin = Thrombin (UniProt P00734;P00734 328-363;364-622)
alpha-fetoprotein (AFP) = target: T1, alpha-fetoprotein (AFP) (UniProt P02771 19-609)
T1 sequence: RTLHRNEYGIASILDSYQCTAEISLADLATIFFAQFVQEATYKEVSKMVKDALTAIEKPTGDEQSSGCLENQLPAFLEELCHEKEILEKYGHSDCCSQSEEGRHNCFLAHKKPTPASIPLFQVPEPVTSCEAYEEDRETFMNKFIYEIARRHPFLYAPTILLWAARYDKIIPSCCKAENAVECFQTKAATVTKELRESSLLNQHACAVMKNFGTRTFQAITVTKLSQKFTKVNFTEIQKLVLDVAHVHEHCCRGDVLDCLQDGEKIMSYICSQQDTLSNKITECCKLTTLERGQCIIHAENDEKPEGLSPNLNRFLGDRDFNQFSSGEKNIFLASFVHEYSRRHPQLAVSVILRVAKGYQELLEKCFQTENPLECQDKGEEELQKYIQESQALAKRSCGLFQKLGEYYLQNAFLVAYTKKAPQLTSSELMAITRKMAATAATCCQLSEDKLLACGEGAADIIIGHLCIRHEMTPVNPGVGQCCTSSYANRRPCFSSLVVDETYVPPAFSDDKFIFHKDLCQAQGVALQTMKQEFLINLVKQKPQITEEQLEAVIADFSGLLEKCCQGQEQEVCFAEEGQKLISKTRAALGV

Measured: binding result

Sequence of Carcinoembryonic antigen (CEA) (P06731 35-685): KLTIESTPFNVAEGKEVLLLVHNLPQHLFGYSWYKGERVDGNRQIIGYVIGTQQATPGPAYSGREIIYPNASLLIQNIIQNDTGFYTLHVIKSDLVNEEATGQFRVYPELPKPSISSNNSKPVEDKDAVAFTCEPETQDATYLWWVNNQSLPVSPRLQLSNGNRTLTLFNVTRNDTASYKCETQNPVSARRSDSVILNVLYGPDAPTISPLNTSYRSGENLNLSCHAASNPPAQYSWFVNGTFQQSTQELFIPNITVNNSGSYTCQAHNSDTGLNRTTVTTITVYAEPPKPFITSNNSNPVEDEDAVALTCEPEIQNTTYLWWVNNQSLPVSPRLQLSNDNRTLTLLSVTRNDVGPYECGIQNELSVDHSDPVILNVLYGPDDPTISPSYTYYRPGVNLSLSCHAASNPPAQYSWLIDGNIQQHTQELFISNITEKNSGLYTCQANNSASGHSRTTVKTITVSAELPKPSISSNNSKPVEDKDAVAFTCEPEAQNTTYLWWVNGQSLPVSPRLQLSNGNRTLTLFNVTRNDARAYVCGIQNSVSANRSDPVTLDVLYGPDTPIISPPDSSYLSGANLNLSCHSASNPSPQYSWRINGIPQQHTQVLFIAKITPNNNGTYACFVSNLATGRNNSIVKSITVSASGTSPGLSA

B1: IgE aptamer, FITC at Site 1 (structured_DNA)
DNA: GCGCGGGGCACGTTTATCCGTCCCTCCTAGTGGCGTGCCCCGCGC
modifications: FITC-modified T at Site 1 (position only in Fig 2A)
no binding: [1] | Thrombin | alpha-fetoprotein (AFP)
